Test results as given in publication PMC9440770.
Positions count from the first letter of the chain named. Names may count otherwise. Each block holds one binder with its values, some of them ahead of it.

Target: fibrinogen (UniProt P02671)
Assay: SPR

Sequence of UniProt P02671 (P02671 36-866, chain 1 of 3): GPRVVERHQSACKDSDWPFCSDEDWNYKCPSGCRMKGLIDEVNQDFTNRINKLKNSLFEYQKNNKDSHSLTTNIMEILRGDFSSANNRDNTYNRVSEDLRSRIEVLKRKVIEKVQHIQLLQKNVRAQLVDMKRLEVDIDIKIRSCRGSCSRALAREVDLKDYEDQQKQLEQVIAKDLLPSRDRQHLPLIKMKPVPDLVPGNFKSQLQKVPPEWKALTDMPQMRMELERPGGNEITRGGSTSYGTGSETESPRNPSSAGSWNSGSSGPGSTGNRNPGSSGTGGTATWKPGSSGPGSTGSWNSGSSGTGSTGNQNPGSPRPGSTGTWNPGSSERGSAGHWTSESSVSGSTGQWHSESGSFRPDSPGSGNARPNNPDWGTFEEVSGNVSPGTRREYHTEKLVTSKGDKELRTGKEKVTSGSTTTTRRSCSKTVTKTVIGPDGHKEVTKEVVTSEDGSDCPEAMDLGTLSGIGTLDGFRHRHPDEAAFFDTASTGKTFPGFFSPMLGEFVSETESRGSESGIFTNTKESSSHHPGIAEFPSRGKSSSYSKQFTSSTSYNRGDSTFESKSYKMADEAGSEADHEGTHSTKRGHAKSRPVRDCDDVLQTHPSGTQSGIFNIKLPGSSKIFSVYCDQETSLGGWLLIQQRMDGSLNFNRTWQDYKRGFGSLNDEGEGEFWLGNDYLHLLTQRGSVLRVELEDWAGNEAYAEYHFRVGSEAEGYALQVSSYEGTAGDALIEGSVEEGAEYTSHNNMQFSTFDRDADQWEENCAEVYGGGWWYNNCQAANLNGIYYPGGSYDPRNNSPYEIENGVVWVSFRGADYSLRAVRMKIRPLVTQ
Sequence of UniProt P02671 (P02675 45-491, chain 2 of 3, further chain): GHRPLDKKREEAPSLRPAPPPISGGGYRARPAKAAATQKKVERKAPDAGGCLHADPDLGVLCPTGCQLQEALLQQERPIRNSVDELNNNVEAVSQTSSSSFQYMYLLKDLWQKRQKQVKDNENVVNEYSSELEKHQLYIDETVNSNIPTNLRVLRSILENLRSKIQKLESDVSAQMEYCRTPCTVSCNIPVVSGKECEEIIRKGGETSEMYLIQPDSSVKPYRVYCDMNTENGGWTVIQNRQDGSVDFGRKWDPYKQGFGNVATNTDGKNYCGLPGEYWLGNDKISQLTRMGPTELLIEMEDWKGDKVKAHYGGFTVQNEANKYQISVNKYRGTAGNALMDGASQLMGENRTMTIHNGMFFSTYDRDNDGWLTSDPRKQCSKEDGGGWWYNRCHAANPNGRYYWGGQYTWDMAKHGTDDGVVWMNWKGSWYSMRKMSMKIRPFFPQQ
Sequence of UniProt P02671 (P02679 27-453, chain 3 of 3, further chain): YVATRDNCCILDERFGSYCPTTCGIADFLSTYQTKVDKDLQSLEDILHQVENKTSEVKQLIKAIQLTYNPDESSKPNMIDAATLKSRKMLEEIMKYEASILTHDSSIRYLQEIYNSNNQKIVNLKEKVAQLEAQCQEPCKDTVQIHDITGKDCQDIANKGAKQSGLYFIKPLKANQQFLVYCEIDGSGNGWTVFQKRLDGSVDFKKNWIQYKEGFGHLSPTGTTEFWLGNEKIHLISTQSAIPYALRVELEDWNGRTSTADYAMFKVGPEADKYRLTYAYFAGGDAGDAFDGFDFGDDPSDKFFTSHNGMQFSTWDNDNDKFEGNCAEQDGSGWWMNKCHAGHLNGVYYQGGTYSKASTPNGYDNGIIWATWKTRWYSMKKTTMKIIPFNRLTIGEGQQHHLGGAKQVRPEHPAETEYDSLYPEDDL

- Kd: 20 µM
B1: human αX I-domain (residues Q129 to G319), wild type (domain or fragment)
chain: QEQDIVFLIDGSGSISSRNFATMMNFVRAVISQFQRPSTQFSLMQFSNKFQTHFTFEEFRRSSNPLSLLASVHQLQGFTYTATAIQNVVHRLFHASYGARRDAAKILIVITDGKKEGDSLDYKDVIPMADAAGIIRYAIGVGLAFQNRNSWKELNDIASKPSQEHIFKVEDFDALKDIQNQLKEKIFAIEG

- Kd: 100 µM
B2: human αX I-domain I314G construct (domain or fragment)
chain: B1 chain with I186G
